# Changes are numbered by the printed parent chain.
# T1: human CD7 (human, UniProt P09564 26-180, limits assumed)
# T1 construct: The construct is not described
# T1 sequence (looked up): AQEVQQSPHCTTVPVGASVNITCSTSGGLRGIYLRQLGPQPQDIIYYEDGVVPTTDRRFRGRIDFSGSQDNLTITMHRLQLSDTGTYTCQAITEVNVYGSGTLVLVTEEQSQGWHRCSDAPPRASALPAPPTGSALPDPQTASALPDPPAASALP
# T2: human CD7 on cells (human, UniProt P09564 26-240)
# T2 sequence (looked up): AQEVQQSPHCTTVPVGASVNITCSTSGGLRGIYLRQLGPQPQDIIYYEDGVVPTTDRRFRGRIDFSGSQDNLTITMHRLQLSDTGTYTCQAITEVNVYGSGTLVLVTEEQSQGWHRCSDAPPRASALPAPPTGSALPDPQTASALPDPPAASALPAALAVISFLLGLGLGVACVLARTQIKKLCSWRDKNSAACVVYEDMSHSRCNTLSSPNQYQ
# B1: BVX102 (bispecific antibody)
# heavy: QVQLQESGAELVKPGASVKLSCKASGYTFTSYWMHWVKQRPGQGLEWIGKINPSNGRTNYNEKFKSKATLTVDKSSSTAYMQLSSLTSEDSAVYYCARGGVYYDLYYYALDYWGQGTTVTVSSASTKGPSVFPLAPSSKSTSGGTAALGCLVKDYFPEPVTVSWNSGALTSGVHTFPAVLQSSGLYSLSSVVTVPSSSLGTQTYCCNVNHKPSNTKVDKKVEPKSCDKT
# light: DIELTQSPATLSVTPGDSVSLSCRASQSISNNLHWYQQKSHESPRLLIKSASQSISGIPSRFSGSGSGTDFTLSINSVETEDFGMYFCQQSNSWPYTFGGGTKLEIKRTVAAPSVFIFPPSDEQLKSGTASVVCLLNNFYPREAKVQWKVDNALQSGNSQESVTEQDSKDSTYSLSSTLTLSKADYEKHKVYACEVTHQGLSSPVTKSFNRGEC
# VH: EVQLVQSGAEVKKPGSSVKVSCKASGYTITDSNIHWVRQAPGQSLEWIGYIYPYNGGTDYNQKFKNRATLTVDNPTNTAYMELSSLRSEDTAFYYCVNGNPYLAAWGQGTLVTVSS
# VL: DIQLTQSPSTLSASVGDRVTIICRASESLDNYGIRFLTWFQQKPGKAPKLLMYAASNQGSGVPSRFSGSGSGTEFTLTISSLQPDDFATYYCQQTKEVPWSFGQGTKLEIK
# notes: bi-Fab; also called CD33-PP-7/CD7-PP-1 WT
# B2: BVX152 (bispecific antibody)
# heavy: B1 heavy with R57K, Y108A
# light: B1 light
# VH: B1 VH
# VL: B1 VL
# notes: bi-Fab; also called CD33-PP-7/CD7-PP-8
# B3: BVX162 (bispecific antibody)
# heavy: B1 heavy with Y108A
# light: B1 light
# VH: B1 VH
# VL: B1 VL
# notes: bi-Fab; also called CD33-PP-7/CD7-PP-13
# B4: BVX150 (bispecific antibody)
# heavy: B1 heavy with R57K, Y108A
# light: B1 light
# VH: B1 VH with Y102W, A105Y
# VL: B1 VL
# notes: bi-Fab; also called CD33-PP-1 WT/CD7-PP-8
# B5: BVX101 (bispecific antibody)
# heavy: B1 heavy
# light: B1 light
# VH: B1 VH with A105Y
# VL: B1 VL
# notes: bi-Fab; also called CD33-PP-4/CD7-PP-1 WT
# B6: BVX161 (bispecific antibody)
# heavy: B1 heavy with Y108A
# light: B1 light
# VH: B1 VH with A105Y
# VL: B1 VL
# notes: bi-Fab; also called CD33-PP-4/CD7-PP-13
# B7: CD33-PP-1-WT binding arm (Fab, V domains shown)
# VH: B1 VH with Y102W, A105Y
# VL: B1 VL
# B8: CD33-PP-4 binding arm (Fab, V domains shown)
# VH: B1 VH with A105Y
# VL: B1 VL
# B9: CD33-PP-7 binding arm (Fab, V domains shown)
# VH: B1 VH
# VL: B1 VL
# B10: BVX100 (bispecific antibody)
# heavy: B1 heavy
# light: B1 light
# VH: B1 VH with Y102W, A105Y
# VL: B1 VL
# notes: also called CD33-PP-1 WT/CD7-PP-1 WT
# B11: BVX160 (bispecific antibody)
# heavy: B1 heavy with Y108A
# light: B1 light
# VH: B1 VH with Y102W, A105Y
# VL: B1 VL
# notes: bi-Fab; also called CD33-PP-1 WT/CD7-PP-13
# B12: BVX100-MMAE (bispecific antibody)
# heavy: B1 heavy
# light: B1 light
# VH: B1 VH with Y102W, A105Y
# VL: B1 VL
# B13: BVX130-MMAE (bispecific antibody)
# heavy: B1 heavy with D104A
# light: B1 light
# VH: B1 VH with Y102W, A105Y
# VL: B1 VL
# B14: BVX150-MMAE (bispecific antibody)
# heavy: B1 heavy with R57K, Y108A
# light: B1 light
# VH: B1 VH with Y102W, A105Y
# VL: B1 VL
# B15: BVX110-MMAE (bispecific antibody)
# heavy: B1 heavy with R57G
# light: B1 light
# VH: B1 VH with Y102W, A105Y
# VL: B1 VL
# B16: BVX120-MMAE (bispecific antibody)
# heavy: B1 heavy with R57K
# light: B1 light
# VH: B1 VH with Y102W, A105Y
# VL: B1 VL
# Target: T3, human CD33 (human, UniProt P20138 18-259, limits assumed)
# T3 construct: The construct is not described
# Assay: SPR (Kd); value of the CD33 arm 33-PP-7
# T3 sequence (P20138 18-259 limits assumed): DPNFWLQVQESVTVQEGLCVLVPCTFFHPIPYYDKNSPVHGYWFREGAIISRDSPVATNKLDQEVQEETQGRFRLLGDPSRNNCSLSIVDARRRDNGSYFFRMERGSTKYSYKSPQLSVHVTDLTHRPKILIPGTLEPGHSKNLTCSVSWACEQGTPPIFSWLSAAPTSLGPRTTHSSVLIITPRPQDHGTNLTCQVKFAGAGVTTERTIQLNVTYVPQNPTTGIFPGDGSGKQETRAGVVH
row,Binder,Fold reduction in binding affinity vs 33-PP-1 WT
1,B1,68 fold
2,B2,68 fold
3,B3,68 fold

# Target: T1, human CD7
# Assay: SPR (Kd); value of the CD7 arm 7-PP-8
row,Binder,Fold reduction in binding affinity vs 7-PP-1 WT
1,B4,64.3 fold
2,B2,87 fold

# Target: T3, human CD33
# Assay: SPR (Kd); value of the CD33 arm 33-PP-4
row,Binder,Fold reduction in binding affinity vs 33-PP-1 WT
1,B5,38.8 fold
2,B6,39 fold

# Target: T4, human CD33 on cells (human, UniProt P20138 18-364)
# T4 construct: whole, on cells; also called CD33+ cells; MV4.11 (CD7-/CD33+)
# Assay: FACS; cells not named
# T4 sequence (P20138 18-364): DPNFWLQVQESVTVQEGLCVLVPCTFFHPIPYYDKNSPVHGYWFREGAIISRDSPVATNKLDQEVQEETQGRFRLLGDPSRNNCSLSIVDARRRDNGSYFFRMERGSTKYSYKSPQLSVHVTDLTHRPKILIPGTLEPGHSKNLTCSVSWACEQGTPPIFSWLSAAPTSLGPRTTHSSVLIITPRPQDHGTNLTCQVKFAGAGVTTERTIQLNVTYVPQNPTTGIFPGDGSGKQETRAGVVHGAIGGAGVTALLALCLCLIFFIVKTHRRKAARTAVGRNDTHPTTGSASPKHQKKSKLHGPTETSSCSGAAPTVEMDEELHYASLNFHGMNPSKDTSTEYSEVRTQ
row,Binder,FACS binding
1,B7,0.16 nM
2,B8,321 nM
3,B9,464 nM

# Target: T3, human CD33
# Assay: SPR (Kd); value of the CD33 arm 33-PP-1 WT
row,Binder,Fold reduction in binding affinity vs 33-PP-1 WT
1,B10,0 fold
2,B4,0 fold
3,B11,0 fold

# Target: T4, human CD33 on cells
# Assay: cell-based or functional assay
Binder,"EC50 (nM), cytotoxicity (MTS, 96 h) on MV4.11 cells (CD7-/CD33+)","EC50 (nM), cytotoxicity (MTS, 96 h) on SHI-1 cells (CD7-/CD33+)"
B12,10.8 nM,2.26 nM
B13,24.1 nM,17.5 nM
B14,9.19 nM,5.23 nM
B15,27 nM,11.4 nM
B16,16.5 nM,7.21 nM

# Target: T2, human CD7 on cells
# Assay: cell-based or functional assay
row,Binder,"EC50 (nM), cytotoxicity (MTS, 96 h) on Jurkat cells (CD7+/CD33-)"
1,B12,0.92 nM
2,B13,5.83 nM
3,B14,1.6 nM
4,B15,4.52 nM
5,B16,1.52 nM

# Target: T3, human CD33
# Assay: SPR
row,Binder,Kd
1,B7,1.36 nM
2,B8,52.7 nM
3,B9,92.3 nM

# Target: T3, human CD33
# Assay: SPR; reference 33-PP-1 WT
row,Binder,"Fold Reduction in binding affinity compared to 33-PP-1 WT (Kd, nM)"
1,B8,38.8 fold
2,B9,67.9 fold

# Target: T1, human CD7
# Assay: SPR (Kd); value of the CD7 arm 7-PP-1 WT
row,Binder,Fold reduction in binding affinity vs 7-PP-1 WT
1,B10,0 fold
2,B5,0 fold
3,B1,0 fold

# Target: T1, human CD7
# Assay: SPR (Kd); value of the CD7 arm 7-PP-13
row,Binder,Fold reduction in binding affinity vs 7-PP-1 WT
1,B11,20.3 fold
2,B3,20.3 fold
3,B6,20.3 fold
